From patent publication US20220204996A1

Columns and labels:
[1] = target: PSI-HydA complex of the ΨH1 strain (hydA1-1 hydA2-1 [psaC-hydA2]) (Chlamydomonas reinhardtii) (UniProt P12154); experiment: cell-based or functional assay
[2] = target: PSI-HydA complex purified from ΨH1^H6 (Chlamydomonas reinhardtii) (UniProt P12154); experiment: cell-based or functional assay
[3] = target: PSI purified from WT^H6 (Chlamydomonas reinhardtii) (UniProt P12154); experiment: cell-based or functional assay
[4] = substrate: PSI purified from the hydA strain (hydA1-1 hydA2-1) (Chlamydomonas reinhardtii) (UniProt P12154); experiment: cell-based or functional assay
[5] = target: PSI-HydA complex of the ΨH1 strain (hydA1-1 hydA2-1 [psaC-hydA2]) (Chlamydomonas reinhardtii) (UniProt P12154); experiment: cell-based or functional assay; remark: listed apart in the source
[6] = target: PSI-HydA complex purified from ΨH1^H6 (Chlamydomonas reinhardtii) (UniProt P12154); experiment: immunoblot of isolated PSI particles loaded on equal P700

Molecule “ferredoxin (Fd) (from UniProt P07839 33-126)” has a rate of H2 production in the dark (GC-TCD, ΨH1 culture) (nmol H2 h^-1 (mg Chl)^-1) [1] of 330, an NADP+ photoreduction rate (coupled assay with Fd and FNR) (NADPH s^-1 per PSI) [2] of 0.77 and an ability of PSI-HydA to reduce algal Fd (in a coupled assay) [2] of 50%. The NADP+ photoreduction rate (coupled assay with Fd and FNR) (NADPH s^-1 per PSI) [3] was 1.57.

B1: Recombinant Synechococcus sp. PCC7002 flavodoxin (protein, UniProt P31158 2-170, looked up)
chain: SKIGLFFGTQTGNTEELAQAIQAAFGGSDIVELFDVAEVDIEALRDFDQLIIGCPTWNVGELQSDWEALYDDLDDVDFSGKTIAYFGAGDQVGYADNFQDAMGVLEEKITSLGGKTVGQWPTAGYDHSESKAERDGKFVGLAIDEDNQPELTAERIQAWVAQLKPAFGL
B1 was tested, and the Flavodoxin photoreduction turnover rate [4] was 0.77 s⁻¹, the Flavodoxin photoreduction turnover rate [5] was 0.088 s⁻¹ and the light-driven reduction of cyanobacterial flavodoxin, drop against PSI [5] was 9 fold.

B2: PsaD (protein, Chlamydomonas reinhardtii, UniProt Q39615 36-196, looked up)
chain: EAEAAPAAAKKAAEKPAWTVPTLNPDTPSPIFGGSTGGLLRKAQTEEFYVITWEAKKEQIFEMPTGGAAIMRQGPNLLKFGKKEQCLALTTQLRNKFKLTPCFYRVFPDGKVQYLHPADGVYPEKVNAGRVGANQNMRRIGQNVNPIKVKFSGRMMSPAEI
B2 gave a ratio of anti-PsaD cross-reactive bands (PSI : PSI-HydA) (ratio to WT PSI) [6] of 1.02.
